Results published in patent publication US20250249113.

Legend:
[1] = test system: Compound 1: AF-Arg-Lys(PEG4-Mal-Cys-Ac)-Phe-OH
[2] = test system: Compound 6: DM1-Mal-Phe-Cit-Lys(PEG4-Mal-Cys-Ac)-Phe-OH
[3] = test system: Compound 11: DM1-Mcc-Phe-Cit-Lys(PEG5-Ma-Cys-Ac)-Tyr-OH
[4] = test system: Compound 5: DM1-Mal-Phe-Lys-Lys(PEG4-Mal-Cys-Ac)-Phe-OH
[5] = test system: Compound 3: AF-Arg-Phe-Lys(PEG4-Mal-Cys-Ac)-OH
[6] = test system: Compound 12: DM1-Mcc-Cit-Lys(PEG5-Ma-Cys-Ac)-Tyr-OH
[7] = test system: Compound 7: DM1-Mal-Phe-Cit-Phe-Lys(PEG4-Mal-Cys-Ac)-OH
[8] = test system: Compound 8: AF-Cit-Lys(PEG4-Mal-Cys-Ac)-Phe-OH

## recombinant human Cathepsin B
[1]
  Ratio (T1/2 Compound/T1/2 Reference), Cat B-induced cleavage: 0.12
  T1/2 Compound (min), Cat B-induced cleavage: 1.5 min
[2]
  Ratio (T1/2 Compound/T1/2 Reference), Cat B-induced cleavage: 0.02
  T1/2 Compound (min), Cat B-induced cleavage: 0.3 min
[3]
  Ratio (T1/2 Compound/T1/2 Reference), Cat B-induced cleavage: 0.005
  T1/2 Compound (min), Cat B-induced cleavage: 0.06 min
  T1/2 of cleavage by exo-Cat B: compounds 11 and 12 are spontaneously cleaved by exo-Cat B (T1/2≤1 min)
[4]
  Ratio (T1/2 Compound/T1/2 Reference), Cat B-induced cleavage: 0.05
  T1/2 Compound (min), Cat B-induced cleavage: 0.6 min
[5]
  Ratio (T1/2 Compound/T1/2 Reference), Cat B-induced cleavage: 0.11
  T1/2 Compound (min), Cat B-induced cleavage: 1.4 min
[6]
  Ratio (T1/2 Compound/T1/2 Reference), Cat B-induced cleavage: 4e-05
  T1/2 Compound (min), Cat B-induced cleavage: 0.0004 min
  T1/2 of cleavage by exo-Cat B: compounds 11 and 12 are spontaneously cleaved by exo-Cat B (T1/2≤1 min)
[7]
  Ratio (T1/2 Compound/T1/2 Reference), Cat B-induced cleavage: 0.09
  T1/2 Compound (min), Cat B-induced cleavage: 1.2 min
[8]
  Ratio (T1/2 Compound/T1/2 Reference), Cat B-induced cleavage: 0.09
  T1/2 Compound (min), Cat B-induced cleavage: 1.1 min
